Assay [1] addresses T1, 4H662-AA.
T1 chain: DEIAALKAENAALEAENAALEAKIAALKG
The experiment in a line: two-hybrid library CCmax.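 Note: natural log of median RNA to DNA barcode read ratio; higher means stronger binding.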 Particulars: mean of both orientations.

Assay [2] concerns the target T2, 4H369-AA.
T2 chain: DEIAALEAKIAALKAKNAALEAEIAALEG
The experiment in a line: two-hybrid library CCmax.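 Note: natural log of median RNA to DNA barcode read ratio; higher means stronger binding.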 Particulars: mean of both orientations.

In assay [3] the target is T3, 4H3922-AA.
T3 chain: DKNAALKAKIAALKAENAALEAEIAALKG
The experiment in a line: two-hybrid library CCmax.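 Note: natural log of median RNA to DNA barcode read ratio; higher means stronger binding.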 Particulars: mean of both orientations.

Assay [4] addresses T4, 4H4033-AA.
T4 chain: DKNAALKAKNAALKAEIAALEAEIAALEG
Kind of assay: two-hybrid library CCmax.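 Note: natural log of median RNA to DNA barcode read ratio; higher means stronger binding.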 Particulars: mean of both orientations.

The target in assay [5] is T5, 4H3625-AA.
T5 chain: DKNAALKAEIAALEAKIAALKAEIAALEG
The experiment in a line: two-hybrid library CCmax.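 Note: natural log of median RNA to DNA barcode read ratio; higher means stronger binding.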 To be noted: mean of both orientations.

Assay [6] addresses T6, 4H327-AA.
T6 chain: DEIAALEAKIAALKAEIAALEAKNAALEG
The experiment in a line: two-hybrid library CCmax.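 Note: natural log of median RNA to DNA barcode read ratio; higher means stronger binding.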

For assay [7], the target named is T7, 4H3605-AA.
T7 chain: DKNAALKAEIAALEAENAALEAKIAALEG
The experiment in a line: two-hybrid library CCmax. Particulars: mean of both orientations.

The target of assay [8] is T8, 4H481-AA.
T8 chain: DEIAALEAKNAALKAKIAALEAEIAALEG
Kind of assay: two-hybrid library CCmax. To be noted: mean of both orientations.

The target in assay [9] is T9, 4H55-AA.
T9 chain: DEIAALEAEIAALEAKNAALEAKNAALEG
The experiment in a line: two-hybrid library CCmax. To be noted: mean of both orientations.

Assay [10] has as its target T10, 4H3664-AA.
T10 chain: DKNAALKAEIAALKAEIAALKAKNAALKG
The experiment in a line: two-hybrid library CCmax. To be noted: mean of both orientations.

Assay [11] concerns the target T11, 4H40-bA.
T11 chain: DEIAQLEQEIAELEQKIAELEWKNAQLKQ
Kind of assay: two-hybrid library CCNG1.

Assay [12] deals with T12, 4H348-bA.
T12 chain: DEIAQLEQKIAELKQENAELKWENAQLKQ
Kind of assay: two-hybrid library CCNG1.

Assay [13] addresses T13, 4H477-bA.
T13 chain: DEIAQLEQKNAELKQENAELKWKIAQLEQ
Kind of assay: two-hybrid library CCNG1.

Assay [14] concerns the target T14, 4H3277-bA.
T14 chain: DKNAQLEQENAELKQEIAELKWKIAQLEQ
The experiment in a line: two-hybrid library CCNG1.

Assay [15] concerns the target T15, 4H319-bA.
T15 chain: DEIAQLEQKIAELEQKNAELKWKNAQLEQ
The experiment in a line: two-hybrid library CCNG1.

In assay [16] the target is T16, 4H741-bA.
T16 chain: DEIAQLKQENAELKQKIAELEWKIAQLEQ
Kind of assay: two-hybrid library CCNG1.

Assay [17] has as its target T17, 4H492-bA.
T17 chain: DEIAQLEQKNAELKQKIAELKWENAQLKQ
The experiment in a line: two-hybrid library CCNG1.

In assay [18] the target is T18, 4H2742-AA.
T18 chain: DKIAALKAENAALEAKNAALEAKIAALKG
The experiment in a line: two-hybrid library CCmax.

The target of assay [19] is T19, 4H428-AA.
T19 chain: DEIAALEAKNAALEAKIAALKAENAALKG
The experiment in a line: two-hybrid library CCmax. Particulars: mean of both orientations.

The target of assay [20] is T20, 4H3709-AA.
T20 chain: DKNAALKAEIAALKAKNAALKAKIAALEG
The experiment in a line: two-hybrid library CCmax. Particulars: mean of both orientations.

Assay [21] deals with T21, 4H971-AA.
T21 chain: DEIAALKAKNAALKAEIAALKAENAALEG
The experiment in a line: two-hybrid library CCmax. To be noted: mean of both orientations.

The target in assay [22] is T22, 4H3066-AA.
T22 chain: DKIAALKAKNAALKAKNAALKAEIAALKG
The experiment in a line: two-hybrid library CCmax. To be noted: mean of both orientations.

For assay [23], the target named is T23, 4H3446-AA.
T23 chain: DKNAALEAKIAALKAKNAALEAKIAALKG
Kind of assay: two-hybrid library CCmax. To be noted: mean of both orientations.

The target of assay [24] is T24, 4H3417-AA.
T24 chain: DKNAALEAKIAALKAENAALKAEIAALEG
Kind of assay: two-hybrid library CCmax. Particulars: mean of both orientations.

Assay [25] addresses T25, 4H497-AA.
T25 chain: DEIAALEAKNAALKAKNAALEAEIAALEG
The experiment in a line: two-hybrid library CCmax. Particulars: mean of both orientations.

Assay [26] concerns the target T26, 4H478-AA.
T26 chain: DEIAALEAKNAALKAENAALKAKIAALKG
Kind of assay: two-hybrid library CCmax. Particulars: mean of both orientations.

Assay [27] concerns the target T27, 4H3939-AA.
T27 chain: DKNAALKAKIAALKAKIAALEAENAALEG
Kind of assay: two-hybrid library CCmax. Particulars: mean of both orientations.

The target in assay [28] is T28, 4H656-AA.
T28 chain: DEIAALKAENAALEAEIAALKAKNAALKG
Kind of assay: two-hybrid library CCmax. Particulars: mean of both orientations.

Assay [29] concerns the target T29, 4H3920-AA.
T29 chain: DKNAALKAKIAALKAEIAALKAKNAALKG
The experiment in a line: two-hybrid library CCmax. To be noted: mean of both orientations.

The target of assay [30] is T30, 4H675-AA.
T30 chain: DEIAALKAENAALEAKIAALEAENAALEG
The experiment in a line: two-hybrid library CCmax. Particulars: mean of both orientations.

Assay [31] deals with T31, 4H3666-AA.
T31 chain: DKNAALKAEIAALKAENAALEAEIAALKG
Kind of assay: two-hybrid library CCmax. Particulars: mean of both orientations.

The target in assay [32] is T32, 4H391-AA.
T32 chain: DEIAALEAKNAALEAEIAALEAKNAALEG
Kind of assay: two-hybrid library CCmax. Particulars: mean of both orientations.

Assay [33] deals with T33, 4H2991-AA.
T33 chain: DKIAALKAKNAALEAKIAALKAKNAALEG
Kind of assay: two-hybrid library CCmax.

Assay [34] has as its target T34, 4H3121-AA.
T34 chain: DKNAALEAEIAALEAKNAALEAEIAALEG
Kind of assay: two-hybrid library CCmax. To be noted: mean of both orientations.

In assay [35] the target is T35, 4H3029-AA.
T35 chain: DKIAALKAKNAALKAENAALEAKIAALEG
Kind of assay: two-hybrid library CCmax. To be noted: mean of both orientations.

The target in assay [36] is T36, 4H3102-AA.
T36 chain: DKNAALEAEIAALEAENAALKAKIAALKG
The experiment in a line: two-hybrid library CCmax. To be noted: mean of both orientations.

Assay [37] has as its target T37, 4H3591-AA.
T37 chain: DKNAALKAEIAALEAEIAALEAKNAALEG
Kind of assay: two-hybrid library CCmax. Particulars: mean of both orientations.

The target in assay [38] is T38, 4H3628-AA.
T38 chain: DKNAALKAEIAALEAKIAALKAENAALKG
Kind of assay: two-hybrid library CCmax.

Assay [39] deals with T39, 4H2948-AA.
T39 chain: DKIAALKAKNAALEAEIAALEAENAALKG
The experiment in a line: two-hybrid library CCmax. Particulars: mean of both orientations.

Assay [40] deals with T40, O9.
T40 chain: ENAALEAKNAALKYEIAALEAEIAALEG
The experiment in a line: two-hybrid library CC0. To be noted: mean of both orientations.

In assay [41] the target is T41, O8.
T41 chain: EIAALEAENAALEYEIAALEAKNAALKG
Kind of assay: two-hybrid library CC0. To be noted: mean of both orientations.

For DEIAALEAKIAALKAEIAALEAKNAALEG [4H327-AA], the interaction score in assay [1] is -1.42; in [2] it was -0.747; in assay [3] it was 0.621; in [4], 0.297; in assay [5] it was 1.3; in assay [6] it was 1.84. The interaction score in assay [7] is -1.29; in assay [8], -0.644; in assay [9], -0.319; in [10], 0.733.
With DEIAQLEQKIAELEQKNAELKWKNAQLEQ [4H319-bA], the interaction score in assay [11] is -0.44; in assay [12] it was -0.881; in [13] it was -0.399; in [14], -0.964; in [15], -0.125; in assay [16], -0.873. The molecule also showed an interaction score in [17] of -1.05.
For the molecule DKIAALKAENAALEAKNAALEAKIAALKG [4H2742-AA], the interaction score is -0.3 in assay [18]; -1.6 in assay [19]; -1.19 in [20]; -1.91 in assay [21]; 1.72 in assay [22]; -1.39 in [23]. Moreover, the interaction score was -1.41 in assay [24]; 2.42 in assay [25]; 1.12 in assay [26]; -1.63 in assay [27]; -2 in assay [28]; -1.23 in assay [29]. Also, the interaction score in [30] is -1.53; in assay [31] it was -1.97; in assay [32] it was -1.21; in assay [33], -0.693; in assay [34], -1.7; in [35], 0.775. Also, the interaction score in [36] was -1.33; in assay [37], -0.99; in assay [38] it was -1.49; in assay [39] it was -0.899.
Consider EIAALEAENAALEYEIAALEAKNAALKG [O8], for which the interaction score in assay [40] is -2.53; in assay [41], -2.62.

(Values after paper PMC10397247.)
